According to patent US20190359662A1:

What was measured:
Assay in all cases: cell-based or functional assay
hNav1.1 (human) = hNav1.1 (human) (UniProt P35498)
hNav1.2 (human) = hNav1.2 (human) (UniProt Q99250)
hNav1.3 (human) = hNav1.3 (human) (UniProt Q9NY46)
hNav1.4 (human) = hNav1.4 (human) (UniProt P35499)
hNav1.5 (human) = hNav1.5 (human) (UniProt Q14524)
hNav1.6 (human) = hNav1.6 (human) (UniProt Q9UQD0)
hNav1.8 (human) = hNav1.8 (human) (UniProt Q9Y5Y9)
hNav1.8 (human), sequence (Q9Y5Y9 whole entry): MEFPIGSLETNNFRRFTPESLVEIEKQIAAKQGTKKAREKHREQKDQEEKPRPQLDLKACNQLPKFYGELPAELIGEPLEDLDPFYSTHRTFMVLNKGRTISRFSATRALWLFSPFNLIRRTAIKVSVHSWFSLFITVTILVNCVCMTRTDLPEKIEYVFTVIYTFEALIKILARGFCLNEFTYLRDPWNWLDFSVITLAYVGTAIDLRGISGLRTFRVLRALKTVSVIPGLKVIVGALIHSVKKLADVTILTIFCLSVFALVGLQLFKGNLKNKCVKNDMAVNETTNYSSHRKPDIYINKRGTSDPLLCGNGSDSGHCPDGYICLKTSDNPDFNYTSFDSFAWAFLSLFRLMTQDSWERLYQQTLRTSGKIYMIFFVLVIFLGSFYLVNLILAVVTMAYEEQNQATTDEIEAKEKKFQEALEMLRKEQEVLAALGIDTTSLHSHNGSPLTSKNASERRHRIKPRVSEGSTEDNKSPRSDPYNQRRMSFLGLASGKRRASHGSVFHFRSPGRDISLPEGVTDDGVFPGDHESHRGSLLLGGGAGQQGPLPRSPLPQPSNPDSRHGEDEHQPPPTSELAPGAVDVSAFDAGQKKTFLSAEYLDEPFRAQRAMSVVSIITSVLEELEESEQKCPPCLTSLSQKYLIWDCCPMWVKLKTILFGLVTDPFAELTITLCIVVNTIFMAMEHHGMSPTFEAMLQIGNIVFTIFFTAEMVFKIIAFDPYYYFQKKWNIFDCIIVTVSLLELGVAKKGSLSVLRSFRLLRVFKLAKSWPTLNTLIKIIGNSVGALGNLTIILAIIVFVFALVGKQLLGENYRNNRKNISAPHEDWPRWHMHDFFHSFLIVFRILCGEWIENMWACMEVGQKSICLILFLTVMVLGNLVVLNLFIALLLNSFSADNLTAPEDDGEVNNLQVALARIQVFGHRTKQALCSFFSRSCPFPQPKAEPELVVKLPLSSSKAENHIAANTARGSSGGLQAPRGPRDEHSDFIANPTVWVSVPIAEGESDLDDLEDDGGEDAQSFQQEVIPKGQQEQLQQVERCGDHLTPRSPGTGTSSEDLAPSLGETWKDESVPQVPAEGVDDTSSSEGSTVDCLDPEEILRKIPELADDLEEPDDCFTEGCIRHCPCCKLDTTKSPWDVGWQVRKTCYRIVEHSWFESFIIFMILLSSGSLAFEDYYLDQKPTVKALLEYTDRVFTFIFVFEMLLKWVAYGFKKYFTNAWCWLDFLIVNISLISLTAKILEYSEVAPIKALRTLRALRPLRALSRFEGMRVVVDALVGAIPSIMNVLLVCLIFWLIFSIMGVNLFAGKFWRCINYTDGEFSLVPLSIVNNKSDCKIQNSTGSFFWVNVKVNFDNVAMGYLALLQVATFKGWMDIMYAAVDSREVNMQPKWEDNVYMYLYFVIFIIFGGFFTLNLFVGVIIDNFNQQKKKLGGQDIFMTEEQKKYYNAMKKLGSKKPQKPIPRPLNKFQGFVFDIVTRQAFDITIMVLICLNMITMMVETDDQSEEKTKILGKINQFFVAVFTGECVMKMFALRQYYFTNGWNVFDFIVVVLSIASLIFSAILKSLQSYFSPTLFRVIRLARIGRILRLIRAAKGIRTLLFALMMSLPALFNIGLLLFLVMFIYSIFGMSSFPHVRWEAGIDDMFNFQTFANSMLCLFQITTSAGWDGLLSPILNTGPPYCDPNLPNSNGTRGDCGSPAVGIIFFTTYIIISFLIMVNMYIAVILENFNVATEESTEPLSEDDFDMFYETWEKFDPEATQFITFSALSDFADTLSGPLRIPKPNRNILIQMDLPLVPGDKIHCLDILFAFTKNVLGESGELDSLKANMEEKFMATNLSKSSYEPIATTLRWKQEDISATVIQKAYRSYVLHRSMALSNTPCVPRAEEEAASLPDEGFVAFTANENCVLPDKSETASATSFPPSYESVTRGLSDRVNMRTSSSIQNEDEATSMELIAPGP

hNav1.5 (human), sequence (Q14524 whole entry): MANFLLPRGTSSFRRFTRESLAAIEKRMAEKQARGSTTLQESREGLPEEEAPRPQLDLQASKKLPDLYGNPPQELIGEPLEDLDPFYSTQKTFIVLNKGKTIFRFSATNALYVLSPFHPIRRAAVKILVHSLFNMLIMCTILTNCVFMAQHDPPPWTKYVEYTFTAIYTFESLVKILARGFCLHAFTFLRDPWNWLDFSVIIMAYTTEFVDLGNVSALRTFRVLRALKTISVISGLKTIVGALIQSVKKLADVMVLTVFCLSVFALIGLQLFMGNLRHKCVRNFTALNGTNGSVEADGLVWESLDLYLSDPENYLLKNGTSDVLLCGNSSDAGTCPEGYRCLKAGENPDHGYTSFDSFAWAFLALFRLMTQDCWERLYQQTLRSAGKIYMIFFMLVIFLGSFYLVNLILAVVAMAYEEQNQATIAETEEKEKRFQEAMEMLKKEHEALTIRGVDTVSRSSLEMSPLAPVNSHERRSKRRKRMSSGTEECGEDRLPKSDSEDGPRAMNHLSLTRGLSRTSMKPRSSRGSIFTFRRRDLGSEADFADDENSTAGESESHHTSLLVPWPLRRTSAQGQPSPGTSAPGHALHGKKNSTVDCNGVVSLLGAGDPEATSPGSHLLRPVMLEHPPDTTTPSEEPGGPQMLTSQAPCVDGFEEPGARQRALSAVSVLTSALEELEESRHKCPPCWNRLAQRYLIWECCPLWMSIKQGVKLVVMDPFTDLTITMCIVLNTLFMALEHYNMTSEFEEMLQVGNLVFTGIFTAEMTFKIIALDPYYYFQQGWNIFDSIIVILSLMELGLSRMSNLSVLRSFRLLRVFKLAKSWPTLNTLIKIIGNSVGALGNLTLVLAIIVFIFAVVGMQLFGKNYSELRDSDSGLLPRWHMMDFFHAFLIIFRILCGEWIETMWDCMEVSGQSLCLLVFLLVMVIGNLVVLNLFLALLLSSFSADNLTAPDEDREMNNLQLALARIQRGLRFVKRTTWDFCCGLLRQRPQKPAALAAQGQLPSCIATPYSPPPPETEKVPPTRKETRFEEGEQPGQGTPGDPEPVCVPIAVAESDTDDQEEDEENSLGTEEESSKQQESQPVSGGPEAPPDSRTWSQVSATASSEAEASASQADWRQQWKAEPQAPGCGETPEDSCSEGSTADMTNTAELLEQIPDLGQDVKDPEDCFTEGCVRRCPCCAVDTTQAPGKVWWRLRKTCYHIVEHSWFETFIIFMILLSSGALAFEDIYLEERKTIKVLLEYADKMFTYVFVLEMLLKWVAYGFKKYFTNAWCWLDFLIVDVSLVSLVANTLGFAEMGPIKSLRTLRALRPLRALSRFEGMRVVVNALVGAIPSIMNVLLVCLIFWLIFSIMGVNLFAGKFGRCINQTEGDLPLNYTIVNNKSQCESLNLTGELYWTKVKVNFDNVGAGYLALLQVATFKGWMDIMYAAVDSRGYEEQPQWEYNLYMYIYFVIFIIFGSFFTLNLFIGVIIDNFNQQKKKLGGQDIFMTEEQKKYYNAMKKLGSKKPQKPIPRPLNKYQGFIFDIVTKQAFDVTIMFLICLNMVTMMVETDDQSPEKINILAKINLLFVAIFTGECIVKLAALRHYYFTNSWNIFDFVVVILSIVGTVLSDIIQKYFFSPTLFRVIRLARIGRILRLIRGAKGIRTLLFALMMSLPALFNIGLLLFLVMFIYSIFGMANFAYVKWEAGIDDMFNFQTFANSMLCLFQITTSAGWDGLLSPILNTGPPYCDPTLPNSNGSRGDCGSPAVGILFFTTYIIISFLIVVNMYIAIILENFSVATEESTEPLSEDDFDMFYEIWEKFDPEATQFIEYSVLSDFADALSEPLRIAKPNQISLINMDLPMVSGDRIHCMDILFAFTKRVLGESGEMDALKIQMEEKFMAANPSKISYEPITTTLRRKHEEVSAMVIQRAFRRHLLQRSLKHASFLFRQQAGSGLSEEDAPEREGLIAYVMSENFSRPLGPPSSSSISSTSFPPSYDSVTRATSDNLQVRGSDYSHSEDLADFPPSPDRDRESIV

Ac-Pnc1a (peptide)
IC50, membrane potential assay (hNav1.1 (human)): 23 µM | IC50, membrane potential assay (hNav1.2 (human)): 5 µM | IC50, membrane potential assay (hNav1.3 (human)): 8 µM | IC50, membrane potential assay (hNav1.4 (human)): 14 µM | IC50, membrane potential assay (hNav1.5 (human)): > 30 µM | IC50, membrane potential assay (hNav1.6 (human)): 16 µM | IC50, membrane potential assay (hNav1.8 (human)): > 30 µM

Pnc1a-CONH2 (peptide)
IC50, membrane potential assay (hNav1.1 (human)): 8 µM | IC50, membrane potential assay (hNav1.2 (human)): 3 µM | IC50, membrane potential assay (hNav1.3 (human)): 7 µM | IC50, membrane potential assay (hNav1.4 (human)): 16 µM | IC50, membrane potential assay (hNav1.5 (human)): > 30 µM | IC50, membrane potential assay (hNav1.6 (human)): 20 µM | IC50, membrane potential assay (hNav1.8 (human)): > 30 µM
